Values joined by “and” are separate entries in the source; they are usually repeats but may differ in a detail not shown here. Equal values may be shown once.
Key:
Format in all cases: cell-based, S. cerevisiae
p1 = p1 copy number by p1-encoded mKate2 fluorescence; conditions: sustained by TP-DNAP1 variant
Summary of the method: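 Read-out is mKate2 fluorescence of saturated OR-Y24 cultures, measured by flow cytometry or by plate reader with OD600 normalization. Flow values were converted by a qPCR-derived linear calibration; plate values were scaled to a w.t. TP-DNAP1 control.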

genomic URA3 gene = test: Fluctuation tests of the genomic URA3 gene in the presence of TP-DNAP1 variants; conditions: URA3 locus, strain harbouring p1 and the TP-DNAP1 variant
Experimental: Fluctuation tests of the genomic URA3 gene were performed to determine genomic per-base substitution rates, as previously described (Ravikumar et al., 2014). Fluctuation data were analyzed by the maximum likelihood method, as described for large-scale p1 fluctuation tests. Phenotypic mutation rates were divided by the target size for loss of function of URA3 via base pair substitution (Lang et al., 2008), to yield per-base substitution rates. 95% confidence intervals were similarly scaled by these factors. All data related to genomic URA3 fluctuation tests are fully described in Table 5.

p1-encoded leu2 (Q180*) [1] = test: Large-scale p1 fluctuation tests of p1-encoded leu2 (Q180*), per-base substitution rate; conditions: for Mutation rate (s.p.b.): per-base substitution rate, p1-encoded leu2 (Q180*), measurements taken after 90 generations
From the text: All three TP-DNAP1 libraries were screened through small scale p1 fluctuation tests in a metastable S. cerevisiae strain, OR-Y24. OR-Y24 contains w.t. p1 and recombinant p1 that lacks w.t. TP-DNAP1, and instead, encodes a standardized fluorescence reporter of p1 copy number (Table 1), and a disabled version of the LEU2 selection marker (leu2 (Q180*)). As described previously (Ravikumar et al., 2014), leu2 (Q180*) contains a C→T mutation at base 538 in LEU2 at a site permissive to all single point mutants that generate missense mutations. Reversion to functional LEU2 can be detected on medium lacking leucine.
Large-scale fluctuation tests of p1-encoded leu2 (Q180*) were performed to precisely determine per-base substitution rates for individually cloned or isolated TP-DNAP1 variants. Large-scale p1 fluctuation tests are performed similarly to small-scale p1 fluctuation tests, with several modifications. First, large-scale p1 fluctuation tests were typically performed with 36-48 replicates. For highly error-prone TP-DNAP1s obtained from later rounds of screening, fewer replicates (3-16) were used, which is sufficient for similar precision (Foster et al., 2006). Second, p1 copy number was determined by the flow cytometry method, described below. Third, cell titers were measured for each fluctuation test to estimate the average number of cells per culture. Cell resuspensions were diluted and plated on solid SC-UH medium, and colony counts were determined after incubation at 30° C. for 2-3 days. Alternatively, cell resuspensions were diluted and subject to an event-count measurement via flow cytometry. Fourth, inoculums of highly error-prone TP-DNAP 1 s occasionally contained pre-existing mutants, despite the 1:10,000 dilution, so mutant frequencies were estimated by plating pre-cultures on solid SC-UHLW, pH 5.8 medium. Plates were incubated for 2-3 days, in parallel with cultures grown for fluctuation tests. Pre-culture mutant titers were counted to estimate the number of replicates in the fluctuation test expected to contain pre-existing mutants (n). Revertants were counted from all replicates of the fluctuation tests, counts were sorted, and n replicates with the highest counts were omitted from calculations.
To calculate per-base substitution rates, fluctuation data were analyzed by the maximum likelihood method, implemented using newton.LD.plating in rSalvador 1.7 (Zheng, 2017). Phenotypic mutation rates were calculated by normalizing to the average number of cells per culture. Phenotypic mutation rates were divided by the measured p1 copy number and by the number of ways leu2 (Q180*) can revert to LEU2 (2.33 for the ochre codon) to yield per-base substitution rates. 95% confidence intervals were similarly scaled by these factors. All data related to large-scale p1 fluctuation tests are fully described in Table 2.

p1-encoded leu2 (Q180*) [2] = test: qPCR measurement of p1-encoded leu2 (Q180*) copy number; conditions: qPCR-determined p1 copy number, OR-Y24 strains
Experimental: A calibration curve was established to correlate p1 copy number, determined via quantitative PCR (qPCR), with fluorescence of p1-encoded mKate2 (Table 1). Five TP-DNAP1 variants representing a wide range of copy numbers were transformed into ORY24 and passaged until w.t. p1 was displaced. The five OR-Y24 strains were grown to saturation, diluted 1:10,000 to mimic p1 fluctuation tests, and grown in triplicate 100 μL cultures and duplicate 40 mL cultures. 100 μL saturated cultures were subject to fluorescence measurement of mKate2 (ex/em=561 nm/620 nm, bandwidth=15 nm) on a flow cytometer (Invitrogen Attune NxT). Whole-cell DNA extracts were prepared from 40 mL cultures and used as templates for qPCR measurement of p1-encoded leu2 (Q180*), as described previously (Ravikumar et al., 2014). p1-encoded LEU2 was PCR amplified with qPCR-Leu2F and qPCR Leu2R; and genomic LEU3 was PCR amplified with qPCR-Leu3F and qPCR-Leu3R using SyBR Green (Fisher Scientific) master mix.

B1: TP-DNAP1-4-1: TP-DNAP1 variant (V574F, I777K, L900S), encoded by SEQ ID NO:10 (protein, listed as Kluyveromyces lactis)
chain: MDYKDKALNDLRNVYADFDSLPLDFRQILIKDRATLLQKEDVEKKILERQEDAKKYAEYLKQSEIPERISLPNIKRHKGVSISFEETSEDMVLEPRPFIFDGLNIRCFRRETIFSLKNKILNMVKESSSFKNVSRQSVSFMYFKIFNKGKVIASTKSVNIYEDKIDERLEDLCNNFDDVLKKIIDVTYGYESLFVSETYSYVIFYAKSIYFPQPRCVNNWGNNIPNILTFDSFKLFTANKNNVSCIKQCSRFLWQKDFNTLEEMIEYKNGNICIVTPQLHINDVRDIKSFNDIRLYSESPIKTFSVIDNTITYLFYFKEHLGVIFNITKSRHDRRVTKFSPLSKFSDVKNITVCFDIESYFDPEKESNQVNIPFICCASIIYNKVIGNIVDFEGRDCVAQMIEYVVDICGELNISSVELIAHNGGGYDFHYILSSMYNPAAIKNILIRNNSFISFNFAHDGVKFSVKDSYSFLLCSLANASKAFLNEETFKKTDFPHHDLKTADDLYKVYKEWSSVNTEINHVVEKEKLLITSEHIVNFTKNDKSKTLIEWSKDYCRNDVLVLSKVWLEFKNAFEDIFNCELVDQTMTLAGLSYKLFQANMPFDVELRHPNKEDYFNMREALIGGRCISVNGIYKDVLCLDVKSLYPASMAFYDQPYGSFKRVSSRPKDELGIYYVRVTPNRNNKSNFFPIRSHNKITYNNFEESTYIAWYTNVDIDIGLSEGHNIEYIPFDSYGNIGYSWSKKGKIFEKYIKDVLYKLKIKYEKQNNKVKRNVIKKIMNSLWGKFAQKWVNFEYFIKSEDDIDFESEEAYKIWDTDFMLIKKIKESTYSSKPIQNGVFTLSWARYHMKSIWDAGAKEGAECIYSDTDSIFVHKEHFKKNAKFMLNGLKVPIIGSEVGQSELECEFDKLLCAGKKQYMGFYTYFQDGKPCIKEKKRFKGIPSNYIIPELYAHLLSGADKEAKIQFLKFRREWGSVKGYIENKTVKAT
p1
  p1 copy number: ~5
Genomic URA3 gene
  Yeast genomic substitution mutation rate: 1.76 × 10^−10 s.p.b.
p1-encoded leu2 (Q180*) [1]; p1 replication by TP-DNAP1 variant
  p1 mutation rate: ~7×10^−6 s.p.b.
p1-encoded leu2 (Q180*) [1]; I777K, L900S
  Mutation rate (s.p.b.): 7.58 × 10^−6 s.p.b. and 6.87 × 10^−6 s.p.b. and 7.71 × 10^−6 s.p.b.

B2: Y431H, L640Y, I777K, W814N: TP-DNAP1 variant, encoded by SEQ ID NO:8 (protein, listed as Kluyveromyces lactis)
chain: MDYKDKALNDLRNVYADFDSLPLDFRQILIKDRATLLQKEDVEKKILERQEDAKKYAEYLKQSEIPERISLPNIKRHKGVSISFEETSEDMVLEPRPFIFDGLNIRCFRRETIFSLKNKILNMVKESSSFKNVSRQSVSFMYFKIFNKGKVIASTKSVNIYEDKIDERLEDLCNNFDDVLKKIIDVTYGYESLFVSETYSYVIFYAKSIYFPQPRCVNNWGNNIPNILTFDSFKLFTANKNNVSCIKQCSRFLWQKDFNTLEEMIEYKNGNICIVTPQLHINDVRDIKSFNDIRLYSESPIKTFSVIDNTITYLFYFKEHLGVIFNITKSRHDRRVTKFSPLSKFSDVKNITVCFDIESYFDPEKESNQVNIPFICCASIIYNKVIGNIVDFEGRDCVAQMIEYVVDICGELNISSVELIAHNGGGYDFHHILSSMYNPAAIKNILIRNNSFISFNFAHDGVKFSVKDSYSFLLCSLANASKAFLNEETFKKTDFPHHDLKTADDLYKVYKEWSSVNTEINHVVEKEKLLITSEHIVNFTKNDKSKTLIEWSKDYCRNDVLVLSKVWLEFKNAVEDIFNCELVDQTMTLAGLSYKLFQANMPFDVELRHPNKEDYFNMREALIGGRCISVNGIYKDVLCYDVKSLYPASMAFYDQPYGSFKRVSSRPKDELGIYYVRVTPNRNNKSNFFPIRSHNKITYNNFEESTYIAWYTNVDIDIGLSEGHNIEYIPFDSYGNIGYSWSKKGKIFEKYIKDVLYKLKIKYEKQNNKVKRNVIKKIMNSLWGKFAQKWVNFEYFIKSEDDIDFESEEAYKINDTDFMLIKKIKESTYSSKPIQNGVFTLSWARYHMKSIWDAGAKEGAECIYSDTDSIFVHKEHFKKNAKFMLNGLKVPIIGSEVGQLELECEFDKLLCAGKKQYMGFYTYFQDGKPCIKEKKRFKGIPSNYIIPELYAHLLSGADKEAKIQFLKFRREWGSVKGYIENKTVKAT
Genomic URA3 gene
  Yeast genomic substitution mutation rate: 2.68 × 10^−10 s.p.b.
p1-encoded leu2 (Q180*) [1]
  Mutation rate (s.p.b.): 2.33 × 10^−6 s.p.b. and 4.29 × 10^−6 s.p.b. and 3.24 × 10^−6 s.p.b.

B3: I777K: TP-DNAP1 variant, encoded by SEQ ID NO:3 (protein)
chain: MDYKDKALNDLRNVYADFDSLPLDFRQILIKDRATLLQKEDVEKKILERQEDAKKYAEYLKQSEIPERISLPNIKRHKGVSISFEETSEDMVLEPRPFIFDGLNIRCFRRETIFSLKNKILNMVKESSSFKNVSRQSVSFMYFKIFNKGKVIASTKSVNIYEDKIDERLEDLCNNFDDVLKKIIDVTYGYESLFVSETYSYVIFYAKSIYFPQPRCVNNWGNNIPNILTFDSFKLFTANKNNVSCIKQCSRFLWQKDFNTLEEMIEYKNGNICIVTPQLHINDVRDIKSFNDIRLYSESPIKTFSVIDNTITYLFYFKEHLGVIFNITKSRHDRRVTKFSPLSKFSDVKNITVCFDIESYFDPEKESNQVNIPFICCASIIYNKVIGNIVDFEGRDCVAQMIEYVVDICGELNISSVELIAHNGGGYDFHYILSSMYNPAAIKNILIRNNSFISFNFAHDGVKFSVKDSYSFLLCSLANASKAFLNEETFKKTDFPHHDLKTADDLYKVYKEWSSVNTEINHVVEKEKLLITSEHIVNFTKNDKSKTLIEWSKDYCRNDVLVLSKVWLEFKNAVEDIFNCELVDQTMTLAGLSYKLFQANMPFDVELRHPNKEDYFNMREALIGGRCISVNGIYKDVLCLDVKSLYPASMAFYDQPYGSFKRVSSRPKDELGIYYVRVTPNRNNKSNFFPIRSHNKITYNNFEESTYIAWYTNVDIDIGLSEGHNIEYIPFDSYGNIGYSWSKKGKIFEKYIKDVLYKLKIKYEKQNNKVKRNVIKKIMNSLWGKFAQKWVNFEYFIKSEDDIDFESEEAYKIWDTDFMLIKKIKESTYSSKPIQNGVFTLSWARYHMKSIWDAGAKEGAECIYSDTDSIFVHKEHFKKNAKFMLNGLKVPIIGSEVGQLELECEFDKLLCAGKKQYMGFYTYFQDGKPCIKEKKRFKGIPSNYIIPELYAHLLSGADKEAKIQFLKFRREWGSVKGYIENKTVKAT
p1-encoded leu2 (Q180*) [2]
  Average leu2 (Q180*) copy number per cell: 45.8 and 54.1
